Measurements from PMC10591911 (Cell reports, 2023).

B3: recombinant 6His-3FLAG-Cdc14 (enzyme, S. cerevisiae, UniProt Q00684 1-551, looked up)
chain: MRRSVYLDNTIEFLRGRVYLGAYDYTPEDTDELVFFTVEDAIFYNSFHLDFGPMNIGHLYRFAVIFHEILNDPENANKAVVFYSSASTRQRANAACMLCCYMILVQAWTPHQVLQPLAQVDPPFMPFRDAGYSNADFEITIQDVVYGVWRAKEKGLIDLHSFNLESYEKYEHVEFGDFNVLTPDFIAFASPQEDHPKGYLATKSSHLNQPFKSVLNFFANNNVQLVVRLNSHLYNKKHFEDIGIQHLDLIFEDGTCPDLSIVKNFVGAAETIIKRGGKIAVHCKAGLGRTGCLIGAHLIYTYGFTANECIGFLRFIRPGMVVGPQQHWLYLHQNDFREWKYTTRISLKPSEAIGGLYPLISLEEYRLQKKKLKDDKRVAQNNIEGELRDLTMTPPSNGHGALSARNSSQPSTANNGSNSFKSSAVPQTSPGQPRKGQNGSNTIEDINNNRNPTSHANRKVVIESNNSDDESMQDTNGTSNHYPKVSRKKNDISSASSSRMEDNEPSATNINNAADDTILRQLLPKNRRVTSGRRTTSAAGGIRKISGSIKK

Key:
[1] = molecular target: Rim4-FLAG (S. cerevisiae) (UniProt P38741); assay: mass photometry
[2] = molecular target: recombinant Bmh1-EGFP-His6 (S. cerevisiae) (UniProt P29311); assay: pull-down
[3] = molecular target: recombinant Bmh2-EGFP-His6 (S. cerevisiae) (UniProt P34730); assay: pull-down
[4] = molecular target: recombinant Bmh1/2-EGFP-His6 (S. cerevisiae) (UniProt P29311); assay: pull-down
[5] = molecular target: B3; assay: pull-down
Bmh1 = molecular target: T1, Bmh1 (S. cerevisiae (endogenous in W303 …, UniProt P29311 1-267)); assay: mass photometry
T1 sequence (looked up): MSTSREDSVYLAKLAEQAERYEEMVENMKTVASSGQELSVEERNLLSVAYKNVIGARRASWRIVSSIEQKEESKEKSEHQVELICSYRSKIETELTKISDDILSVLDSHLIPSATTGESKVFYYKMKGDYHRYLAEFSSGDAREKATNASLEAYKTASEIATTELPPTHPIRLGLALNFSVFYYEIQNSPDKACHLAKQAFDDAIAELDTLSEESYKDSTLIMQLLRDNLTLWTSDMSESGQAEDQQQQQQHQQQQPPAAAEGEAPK

[6] = molecular target: T2, recombinant Rim4(PxLm)-His6 (S. cerevisiae, UniProt P38741 1-713, P454E455L456 to A454E455G456); assay: pull-down
T2 sequence (looked up): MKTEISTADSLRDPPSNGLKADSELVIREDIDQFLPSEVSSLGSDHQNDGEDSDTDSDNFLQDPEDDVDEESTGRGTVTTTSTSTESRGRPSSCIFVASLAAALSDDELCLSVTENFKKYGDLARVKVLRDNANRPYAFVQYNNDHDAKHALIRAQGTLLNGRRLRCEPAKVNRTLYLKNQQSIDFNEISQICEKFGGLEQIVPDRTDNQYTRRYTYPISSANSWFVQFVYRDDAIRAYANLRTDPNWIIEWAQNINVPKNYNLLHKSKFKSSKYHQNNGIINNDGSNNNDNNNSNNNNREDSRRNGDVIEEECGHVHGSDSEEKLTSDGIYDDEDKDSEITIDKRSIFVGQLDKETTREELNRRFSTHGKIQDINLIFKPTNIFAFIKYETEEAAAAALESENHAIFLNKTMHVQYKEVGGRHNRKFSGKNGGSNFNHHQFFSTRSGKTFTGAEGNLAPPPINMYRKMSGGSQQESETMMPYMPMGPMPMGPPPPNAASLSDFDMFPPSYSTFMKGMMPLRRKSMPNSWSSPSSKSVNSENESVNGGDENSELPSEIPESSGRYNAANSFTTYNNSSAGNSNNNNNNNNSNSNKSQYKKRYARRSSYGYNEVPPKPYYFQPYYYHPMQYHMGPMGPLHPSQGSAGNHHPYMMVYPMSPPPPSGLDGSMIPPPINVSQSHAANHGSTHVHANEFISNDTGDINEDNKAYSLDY

Bmh1 (from UniProt P29311 1-267) (natural protein)
stoichiometry N [1]: 1

Bmh2 (from UniProt P34730 1-273) (natural protein)
stoichiometry N [1]: 1

PKA-treated Rim4-His6 (Rim4-BBS-p) (from UniProt P38741 1-713) (natural protein)
mole ratio in the pull-down, printed 2.5:1 [2]: 2.5
mole ratio in the pull-down, printed 2.5:1 [3]: 2.5
mole ratio in the pull-down, printed 2.5:1 [4]: 2.5

B1: recombinant Rim4(ΔC289)-His6 (domain or fragment, S. cerevisiae, UniProt P38741 1-424, looked up)
chain: MKTEISTADSLRDPPSNGLKADSELVIREDIDQFLPSEVSSLGSDHQNDGEDSDTDSDNFLQDPEDDVDEESTGRGTVTTTSTSTESRGRPSSCIFVASLAAALSDDELCLSVTENFKKYGDLARVKVLRDNANRPYAFVQYNNDHDAKHALIRAQGTLLNGRRLRCEPAKVNRTLYLKNQQSIDFNEISQICEKFGGLEQIVPDRTDNQYTRRYTYPISSANSWFVQFVYRDDAIRAYANLRTDPNWIIEWAQNINVPKNYNLLHKSKFKSSKYHQNNGIINNDGSNNNDNNNSNNNNREDSRRNGDVIEEECGHVHGSDSEEKLTSDGIYDDEDKDSEITIDKRSIFVGQLDKETTREELNRRFSTHGKIQDINLIFKPTNIFAFIKYETEEAAAAALESENHAIFLNKTMHVQYKEVGGRH
binding result [5]: binds

B2: Bmh2 (natural protein, UniProt P34730 1-273, looked up)
chain: MSQTREDSVYLAKLAEQAERYEEMVENMKAVASSGQELSVEERNLLSVAYKNVIGARRASWRIVSSIEQKEESKEKSEHQVELIRSYRSKIETELTKISDDILSVLDSHLIPSATTGESKVFYYKMKGDYHRYLAEFSSGDAREKATNSSLEAYKTASEIATTELPPTHPIRLGLALNFSVFYYEIQNSPDKACHLAKQAFDDAIAELDTLSEESYKDSTLIMQLLRDNLTLWTSDISESGQEDQQQQQQQQQQQQQQQQQAPAEQTQGEPTK
stoichiometry N (Bmh1): 1

B3
binding result [6]: binds
